This assay addresses TNF-alpha. Kind of assay: cell-based or functional assay.

Etanercept (Fc fusion) returned a N-terminal L929 Assay (EC50, pM) of 1.5 pM.
